This data set concerns Bacillus subtilis DB104 (SP-AmyQ fusion secretion). As to the kind of experiment: AmyQ secretion efficiency, weighted average sort bin (1 = best secretion, 10 = worst) (bin number (weighted average, 1-10)); higher = lower secretion efficiency. The gist of the method: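 Secretion score gives the read-frequency-weighted average bin number, normalised to beads per bin, with low-abundance sequences left out. A B. subtilis DB104 library expressing mature AmyQ fused to designed signal peptides, integrated at amyE, was encapsulated with fluorescein-starch at about 0.3 cells per ~65 nL alginate bead. Beads were grown about 13 h at room temperature, stained with nile red, and the occupied ones were sorted by large-particle flow cytometry into 10 equally populated bins by green/red fluorescence ratio before the amplicons from each bin were Illumina-sequenced.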

“And” between values parts separate entries of the source, which are not always exact repeats. Identical values can stand only once.

Take MPYLKRVLLLLVTGLFMSLFAVTATLSAQTG: the AmyQ secretion efficiency is 1.38.

Sequence MRPVFPLILSAVLFLSCFFGARQTEASARKR registered an AmyQ secretion efficiency of 2.01.

As for MKRIRIPMTLALGAALTIAPLSFPSAEEN, the AmyQ secretion efficiency turned out to be 6.68.

On to MGGLGTLVLLLLVTGLFMSLFAVTATASAQTG, for which the AmyQ secretion efficiency was 3.36.

In turn, MSFFTKNRLISSVLSTVVISSLLFPGAAGASSK returned an AmyQ secretion efficiency of 1.61.

MKWMCSICCAAVLLAGGAAQTEAV had an AmyQ secretion efficiency of 3.03.

MKKAFLVFLSVVLVTTVFLVKQQESVAQRKQL showed an AmyQ secretion efficiency of 2.03.

As for MKKAAAVLLSLGLVFGFSYGAEAKTK, the AmyQ secretion efficiency worked out at 2.21.

In turn, MKRTWNVCLTALLSVLLVAGSVPFHAEAAPK returned an AmyQ secretion efficiency of 2.29.

MRKRKKRTIFAFLTGLMMFGTITAASASPD registered an AmyQ secretion efficiency of 5.69.

MKKRKRRNFKRFIAAFLVLALMILSLVPADVLAKST: the AmyQ secretion efficiency is 2.47.

Consider MKVLLSALLLLLFAFEPSTVVTAATAVASGKKL, for which the AmyQ secretion efficiency turned out to be 2.96.

Turning to MLKRTSFVSSLFISSAVLLLPSGQAHAQSA, the AmyQ secretion efficiency is 1.64.

MLKKIALTLCPAIVGSLLFFTDEDASAHVS: the AmyQ secretion efficiency came out at 4.47.

For MKVPKTMLKRTAAGLLLSLTATSVSAHYV, the AmyQ secretion efficiency worked out at 4.94.

In turn, MKKIGLLFMLCLAALFTIGFPAQQADAEED had an AmyQ secretion efficiency of 2.27.

MRNLTKTSLLLAGLCTAAQMVFVTHASGEES yielded an AmyQ secretion efficiency of 2.76.

Take MRKKTKNRLISSVLSTVVISSLLFPGAAFAGASSK: the AmyQ secretion efficiency was determined as 1.5.

MKRMIVRMTLPLLIVCLAFSSFSASARNASE returned an AmyQ secretion efficiency of 3.81.

The sequence MFKKHTISLLIIFLLALTSAVLAKPIEAHTV gave an AmyQ secretion efficiency of 2.73.

MKRFLIGAGVAASGWFIADHQTHSQEM came in with an AmyQ secretion efficiency of 6.73.

In turn, MARKRKIIAAVIVIAALITFNVRNASPG came in with an AmyQ secretion efficiency of 6.43.

For the sequence MSMVMLATALFLGLTPAGANAADL, the AmyQ secretion efficiency worked out at 5.37.

MKKALTLCPAIVGSLLFFTAPASAHVS returned an AmyQ secretion efficiency of 2.41.

MTKKFTIMSAWFLPLVCVLLISGWLAPAASASAQTT gave an AmyQ secretion efficiency of 1.82.

Sequence MKRTWNVCLTALLSVLLVAGSVPSHAEAKKP gave an AmyQ secretion efficiency of 1.85.

Turning to MAAQTDYKKQVVGILLSLAFVLFVFSCSERHE, the AmyQ secretion efficiency was found to be 4.02.

Take MKSKWMSGLLLVAVGFSFTSVMVHAGET: the AmyQ secretion efficiency turned out to be 7.31.

MKKAFILSAAAAVGLFTFGGVQQLSAKEL: the AmyQ secretion efficiency was determined as 3.38.

MKKAFILSAAAAVGLFTFIAVSVASAKEL showed an AmyQ secretion efficiency of 3.67.

For MKKLLAAGIIGLLTVSIASPSFGAEK, the AmyQ secretion efficiency worked out at 4.39.

For MKLKSKLLLSCLALSTVFVATTIANIPTH, the AmyQ secretion efficiency was determined as 5.95.

In the case of MKIRKIRRRKALSFGMLISAVPALAAGT, the AmyQ secretion efficiency was 5.54.

MNKKKKVVSALSISALALSVSGVASAHEI showed an AmyQ secretion efficiency of 3.7.

With MHLIRAAGAVCLAVVLIAGCRITSIFFNEDQHQAEGENT, the AmyQ secretion efficiency came out at 6.96.

On to MFFTIVAGLAVSAVVGSSMAAAPAEAKTI, for which the AmyQ secretion efficiency came to 2.75.

The sequence MKSSSSALLLLLFAFEPSASGKKL returned an AmyQ secretion efficiency of 7.85.

For the sequence MKVKRKRLLLLLFAFEPSASGKKL, the AmyQ secretion efficiency is 7.56.

On to MFNRLFRVCFLAALIMAFTLPNSVYAKKR, for which the AmyQ secretion efficiency stood at 3.37.

Sequence MKKQIITATTAVVLGSTLFAGAASAQKR gave an AmyQ secretion efficiency of 2.23.

Sequence MKKAFILSAAAAVGLFTFKRRQQASAKEL yielded an AmyQ secretion efficiency of 7.06.

In turn, MKLAKRVSALTPSTTLAITAKAAED came in with an AmyQ secretion efficiency of 5.72.

Sequence MKNMSCKLVVSVTLFFSFLTIGPLAHVQNS returned an AmyQ secretion efficiency of 4.29.

Regarding MKSLPYTIALLFCGLIIVSMAAKGKKR, the AmyQ secretion efficiency is 7.49.

The sequence MPYLKRVRKLLVTGLFMSLFAVTATASAQTG gave an AmyQ secretion efficiency of 1.73.

The sequence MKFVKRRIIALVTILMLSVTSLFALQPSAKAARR gave an AmyQ secretion efficiency of 1.74.

Consider MTMLRKIIGWILLLCIIPLFAFTVIASCKEV, for which the AmyQ secretion efficiency came out at 8.74.

On to MKKTIMSFVAVAALSTTAFGAHASFKEI, for which the AmyQ secretion efficiency was 5.37.

As to MRSYIKVLTMCFLGLILFVPTALMDNS, the AmyQ secretion efficiency is 6.46.

MKLSVKIAGVLTVAAAAMTAKMYATWKGN showed an AmyQ secretion efficiency of 7.14.

Consider MKRIRIPMTLALGAALTIAPLSFSSAEEN, for which the AmyQ secretion efficiency amounted to 4.73.

For the sequence MKKRFFGPIILAFILFAGAIHIPS, the AmyQ secretion efficiency stood at 5.21.

For the sequence MMKKLFHSTLIVLLFFSFFGVQPIHAAKK, the AmyQ secretion efficiency is 1.9.

Sequence MKKGIIRFLLVSFVLFFALSTGITGVQVAPA displayed an AmyQ secretion efficiency of 6.17.

In turn, MKKRKQRPRLLSAASLAFFAMSGSAQAAAY gave an AmyQ secretion efficiency of 6.55.

MKLKSKLLLSCLALSTVFVATTIGNAPTH yielded an AmyQ secretion efficiency of 7.24.

In the case of MKKQWIGMLAAAVLLLMVPKVSLADAA, the AmyQ secretion efficiency was 2.86.

Turning to MRKKIKVLTMCFLGLILFVPTALADNS, the AmyQ secretion efficiency was determined as 1.88.

MGMKKKSRTGVASAALGLALVGGGTWAAFN displayed an AmyQ secretion efficiency of 5.34.

On to MKLKKRVSMFLVALTMCGGLFVRRRKRAKAVKT, for which the AmyQ secretion efficiency worked out at 6.98.

The sequence MKRLLSTLLIGIMLLPKAPSAFAKQD registered an AmyQ secretion efficiency of 2.61.

In turn, MKKFIFNMFIGLLFMLCLAALFTIGFPAQQADAAEA gave an AmyQ secretion efficiency of 2.9.

The sequence MPYLKRVLLLLVTGLFMSLFAVTATASIQTG registered an AmyQ secretion efficiency of 1.67.

The sequence MAIIIAIIAAVIVIAALITFNVRNESPG yielded an AmyQ secretion efficiency of 7.39.

Turning to MSNMSCMLVVSVTLFFSFLTIGPLAHAQNS, the AmyQ secretion efficiency came to 1.7.

For the sequence MKKWMITIAMLILAGIALFVFISPSKSHKT, the AmyQ secretion efficiency came to 6.65.

MSLITFSLIITSAIIIAIIAAVIVIAALITFNVRNASPG registered an AmyQ secretion efficiency of 7.04.

MKKRFSLRRRKRKLFGLTSPAFAAEK registered an AmyQ secretion efficiency of 7.37.

MKKRLIGFLVLVPALIMSGITLIEWNKK displayed an AmyQ secretion efficiency of 3.04.

In turn, MRPVFPLILSAVLFLSCFFGARQTEESASKR gave an AmyQ secretion efficiency of 7.33.

Take “MKKGIIRFLLVSFVLFFALLAFVVISFFSTGITGVQAAPA”: the AmyQ secretion efficiency came out at 2.07.

Sequence MKKWMAGLFLAAAVLLCLMIQGASS gave an AmyQ secretion efficiency of 3.95.

MKKSQYFIVFICFFVLFSVHPIAAARADS gave an AmyQ secretion efficiency of 3.7.

As for MLKKKWMVGLLAGCLAAGGFSYNAFQTEN, the AmyQ secretion efficiency is 6.95.

In turn, MKRIRIPMTLALGAALTIAPLSFDSAEEN gave an AmyQ secretion efficiency of 7.3.

The sequence MKKWIYVVLVLSIAGIGGKRRVHAASS had an AmyQ secretion efficiency of 7.83.

On to MKKARRRKAAAAVGLFTFGGVQQASAKEL, for which the AmyQ secretion efficiency was 6.73.

On to MRKKRVITCVMAASLTLGPAGYASAKED, for which the AmyQ secretion efficiency is 3.6.

MLKRTSFVSSSFISSAVLLSILLPSGQAHAQSA: the AmyQ secretion efficiency was determined as 2.16.

On to MKLSVKIAGVLTVAAAAMTAKMYATPKGN, for which the AmyQ secretion efficiency amounted to 5.67.

Turning to MRKKKRRVLLLLVTGLFMSLFAVTATASAQTG, the AmyQ secretion efficiency was 1.06.

For the sequence MPYLKRVRRRRVTGLFMSLFAVTATASAQTG, the AmyQ secretion efficiency is 2.37.

For the sequence MKKIVSILFMFGLVMKKKQFQPSTVFAADK, the AmyQ secretion efficiency turned out to be 7.82.

MKKKLAAGLTASAIVGTTLVVFTAEAATI came in with an AmyQ secretion efficiency of 5.8.

Sequence MRKYTVIASILLSFLSVLFGVAHESKAFPV showed an AmyQ secretion efficiency of 3.89.

The sequence MKKKIRRKKKKSAVVGSSMAAAPAEAKTI registered an AmyQ secretion efficiency of 7.24.

MKTLRTLCVLMILSGVIFFGLKIDCKDI showed an AmyQ secretion efficiency of 5.37.

MFNRLFRVCRRAALIMAFTLPNSVYAQKP yielded an AmyQ secretion efficiency of 4.23.

For the sequence MKRSISIFITCLLITLLTMGGMIASPASAAGT, the AmyQ secretion efficiency is 3.79 and 2.48 and 2.42.

For the sequence MKKWMASQKKSTQVLLCLMVPQQIQGASS, the AmyQ secretion efficiency stood at 7.24.

Take MKRMIVRMTLPLLIVCLAFSSFSASARCASE: the AmyQ secretion efficiency was 4.35.

Consider MKRFSTAYLKKRKLCSAAVFLIGAPSRALGAEV, for which the AmyQ secretion efficiency amounted to 6.51.

On to MRKKRVITCVMAASLTLGSLLPAGYCSAKED, for which the AmyQ secretion efficiency came out at 3.36.

Regarding MNLRKIMSIMNIILLSSALSLGMLVSAAPVLATSS, the AmyQ secretion efficiency turned out to be 2.04.

MRPVFPLILSAVLFLSCFRGARQTKASASKR showed an AmyQ secretion efficiency of 7.54.

The sequence MKKWIYVVLVLSIAGIGGFSNHAASS gave an AmyQ secretion efficiency of 6.81.

As to MPIKKKVMMCKRVTLVFGSMSFPTLTNSGGFKE, the AmyQ secretion efficiency came to 6.57.

In turn, MKKLLAAGIIGLLTVSIASPSFLAEK came in with an AmyQ secretion efficiency of 5.65.

As to MKVPKTMLLSTAAGLLLSLTATSCSAHYV, the AmyQ secretion efficiency came to 4.58.

Turning to MKKAFLVFLSVVLVTTVFLVKQQESVDQAKQL, the AmyQ secretion efficiency amounted to 5.67.

In the case of MSKWMAGLFLAAAVLLCLMVPQQIQGASS, the AmyQ secretion efficiency was 4.5.

For the sequence MKKRKRRVVLVLSIAGIGGFSVHAASS, the AmyQ secretion efficiency is 7.17.

The sequence MRNLTKMMNTSLLLAGLCTAAQMVFVTHASAEES showed an AmyQ secretion efficiency of 2.48.

As for MAIIIAIIAAVIVIAALITFNVRNPSPG, the AmyQ secretion efficiency turned out to be 7.75.

In the case of MKRIRIPMTLALGAALTIAPLSFNSAEEN, the AmyQ secretion efficiency is 7.4.

On to MMSTIMSFVAVAALSTTAFGAHASAKEI, for which the AmyQ secretion efficiency worked out at 4.72.

On to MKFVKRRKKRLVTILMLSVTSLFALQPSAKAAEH, for which the AmyQ secretion efficiency is 2.78.

In the case of MKNMSCKLVVSVTLFFSFLTIGPLSHAQNS, the AmyQ secretion efficiency was 2.11.

The record behind these values is the supplement of paper PMC9942255.
